By Kd is commonly meant the constant that tells how readily two partners part at equilibrium. Usually koff stands for a measure of how fast the partners let go of each other. The term kon denotes the rate constant with which the complex forms.

This is an account of results in patent publication US20180244796A1 (CARSGEN THERAPEUTICS, published 2018).

Sequences and labels used below:
B2: purified human mesothelin protein (recombinant, 6xHis tag) (other)
chain: EVEKTACPSGKKAREIDESLIFYKKWELEACVDAALLATQMDRVNAIPFTYEQLDVLKHKLDELYPQGYPESVIQHLGYLFLKMSPEDIRKWNVTSLETLKALLEVNKGHEMSPQVATLIDRFVKGRGQLDKDTLDTLTAFYPGYLCSLSPEELSSVPPSSIWAVRPQDLDTCDPRQLDVLYPKARLAFQNMNGSEYFVKIQSFLGGAPTEDLKALSQQNVSMDLATFMKLRTDAVLPLTVAEVQKLLGPHVEGLKAEERHRPVRDWILRQRQDDLDTLGLGLQGHHHHHH
notes: also called hu-mesothelin; human mesothelin recombinant protein

For test [1], the target named is T1, BSA (bovine serum albumin) (bovine, UniProt P02769 25-607).
T1 construct: also called negative control protein BSA
The test can be described thus: single phage ELISA, 100 ng/well coated BSA, anti-M13 detection. How it is done:
96 clones were randomly selected in the clones obtained from the fourth round of screening and their binding capability to human mesothelin was analyzed by single phage ELISA (enzyme-linked immunosorbent assay). For this purpose, each single colony was inoculated in 300 μl of 2×YT/ampicillin medium (containing 2% glucose) in a 96-well deep-well plate and cultured with shaking at 37° C. and 250 rpm for 16 hours. 20 μl of culture was inoculated into 500 μl of 2×YT/ampicillin medium (containing 0.1% glucose) and shaken at 37° C. and 250 rpm for 1.5 hours. To prepare the helper phage solution, 75 μl of M13KO7 (titer of 3×10¹² pfu/ml) was taken and mixed into 15 ml of 2×YT medium and added into a culture plate at 50 μl/well, and incubated at 37° C. and 150 rpm for 30 minutes. And then prepared kanamycin solution (180 μl of 50 mg/ml kanamycin was taken and added into 15 ml of 2×YT medium) was added at 50 μl/well and incubated with shaking for 16 hours at 37° C. and 250 rpm. […]
For single phage ELISA, 100 ng/well of antigen human mesothelin and negative control protein BSA (100 μl/well) were used in a 96-well MediSorp ELISA plate (purchased from Nunc) and coated overnight at 4° C. […] Extinction values were measured at 450 nm with an enzyme-linked immunosorbent (Bio-Rad).
(In an ELISA, binding on a coated surface is turned into a signal by an enzyme label.)

For another test, the target named is T2, scFv-P1A6E-Fc (human, UniProt P01857-1 99-330 = IgG part, limits assumed).
T2 construct: domain: Fc fragment; scFv cloned NheI/BamHI into pCMV-V5-Fc, expressed in HEK-293F, protein A purified; also called P1A6E single chain antibody; antibody-Fc fusion protein scFv-P1A6E-Fc
The test can be described thus: SPR Biacore T200, antibody captured by anti-human IgG (Fc), human mesothelin as analyte, 25 C. The protocol: (§1) To quantitatively analyze the binding of an antibody to human mesothelin, the affinity and kinetic parameters of single-chain antibody and monoclonal antibody of P1A6E and P3F2 were measured by capture method using Biacore T200 system (from GE). An anti-human IgG (Fc) antibody (purchased from GE) was coupled to carboxymethyl dextran surface of sensor chip […] through primary amino with NHS/EDC coupling according to the manufacturer's instructions. Measurements were performed in 1×HBS-EP+working buffer at 25° C., 30 μl/min, and regeneration condition was 3 M MgCl2, 10 μl/min for 30 seconds. In each round of the testing cycle, the antibody to be tested is firstly captured onto the chip. Analyte (human mesothelin) of a certain concentration flowed over the chip surface. Due to the produced SPR signal, the interaction between human mesothelin and the captured antibody can be detected. The detected signal is defined as resonance unit (RU), which was plotted vs time (second) to obtain the corresponding binding curve and dissociation curve. In different test cycles, concentrations of human mesothelin were 10 nM, 20 nM, 40 nM, 80 nM and 160 nM, respectively. The resulting curves were evaluated using Biacore T200 evaluation software and the affinity KD values were calculated. FIG. 5 and FIG. 6 show kinetic curves of the monoclonal antibodies P1A6E and P3F2, in a Biacore Affinity Assay, respectively.
Background: Surface plasmon resonance follows binding to a sensor surface in real time, without labels.

The next test deals with T3, scFv-P3F2-Fc (human, UniProt P01857-1 99-330 = IgG part, limits assumed).
T3 construct: domain: Fc fragment; scFv cloned NheI/BamHI into pCMV-V5-Fc, expressed in HEK-293F, protein A purified; also called P3F2 single chain antibody; P3F2 single chain antibod
The description is as above. How it is done:
as §1

For test [2], the target named is B2. Put plainly: flow cytometry; CAR T cells stained with biotinylated human mesothelin recombinant protein and PE-labeled streptavidin. The protocol: Infected CTL cells were detected by flow cytometry on day 8 of culture for the expression of different chimeric antigen receptors. Firstly, the infected CAR T cells were incubated with biotinylated human mesothelin recombinant protein for 1 h at 37° C., washed in D-PBS twice and then incubated with PE-labeled streptavidin for 40 min at 37° C. After washed with D-PBS for 3 times, the ratio of positive cells was determined by flow cytometry. Uninfected T lymphocytes was used as a negative control, the positive rates of virus-infected T cells expressing different chimeric antigen receptors are shown in Table 3.
Background: A flow cytometer gives signals particle by particle.

The target in test [3] is B2. Put plainly: SPR Biacore T200, antibody captured by anti-human IgG (Fc), human mesothelin as analyte, 25 C. The protocol: as §1
Test [4] addresses human mesothelin on PANC-1-MSLN cells (human, UniProt Q13421 296-598). The test can be described thus: cell-based or functional assay.

Sequence of human mesothelin on PANC-1-MSLN cells (Q13421 other isoform, or with tags, fused parts or gaps limits assumed): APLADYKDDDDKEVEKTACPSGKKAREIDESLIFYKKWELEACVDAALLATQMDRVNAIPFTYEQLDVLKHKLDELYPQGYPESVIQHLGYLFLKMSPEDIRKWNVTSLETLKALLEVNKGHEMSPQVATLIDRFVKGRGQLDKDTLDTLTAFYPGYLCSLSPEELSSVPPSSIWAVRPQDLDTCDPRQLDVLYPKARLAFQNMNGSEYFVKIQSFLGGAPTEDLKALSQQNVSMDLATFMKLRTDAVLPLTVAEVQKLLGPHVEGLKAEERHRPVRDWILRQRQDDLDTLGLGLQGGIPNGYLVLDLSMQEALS
T1 sequence (P02769 25-607 limits assumed): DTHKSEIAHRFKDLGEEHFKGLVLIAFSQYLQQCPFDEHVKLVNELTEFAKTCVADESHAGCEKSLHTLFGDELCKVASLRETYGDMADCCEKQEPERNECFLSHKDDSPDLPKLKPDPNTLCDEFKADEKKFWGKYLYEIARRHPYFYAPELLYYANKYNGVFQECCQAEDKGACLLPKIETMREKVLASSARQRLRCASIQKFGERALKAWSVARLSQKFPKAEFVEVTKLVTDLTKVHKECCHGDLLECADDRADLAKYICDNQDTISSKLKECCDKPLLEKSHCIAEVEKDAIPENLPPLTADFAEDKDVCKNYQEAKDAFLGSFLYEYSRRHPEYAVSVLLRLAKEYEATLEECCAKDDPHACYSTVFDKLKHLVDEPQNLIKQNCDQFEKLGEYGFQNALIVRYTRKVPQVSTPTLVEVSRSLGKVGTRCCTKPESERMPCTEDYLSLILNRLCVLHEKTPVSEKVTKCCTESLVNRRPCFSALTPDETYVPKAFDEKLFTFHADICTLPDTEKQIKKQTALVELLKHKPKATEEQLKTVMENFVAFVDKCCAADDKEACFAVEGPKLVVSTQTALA

B1: single chain antibody P1A6E (phage-displayed, single phage ELISA) (scFv)
scFv: QVQLEQSGLGLVKPSQTLSLTCAISGDTVSSDSAAWNWIRQSPSRGLEWLGRTYYRSKWFNDYAVSVKGRITINSDTSKNQFSLQLNSVTPEDTAVYYCARSNSYYYYAMDVWGQGTLVTVSSGGGGSGGGGSGGGGSQAVLTQPSSLSASPGASASLTCTLRSGINVGIYRIYWYQQRPGSPPQILLTYKSDSDKYQGSGVPSRFSGSKDASANAGILLISGLQSEDEADYYCMIWHSGGWVFGGGTKVTVLG
notes: the fusion to the phage coat protein is not described
Regarding B1, the binding result in test [1] is on record as “no binding”.

In the test with scFv-P1A6E-Fc, B2 registered a Kd of 18.9 nM, a koff of 0.00156 s⁻¹ and a kon of 82500 M⁻¹ s⁻¹. For the same molecule, in the test with scFv-P3F2-Fc, the Kd is 16.2 nM, the koff worked out at 0.000935 s⁻¹ and the kon worked out at 57700 M⁻¹ s⁻¹.

B3: chimeric antigen receptor P1A6E-δZ on CTL cells (receptor)
chain: QVQLEQSGLGLVKPSQTLSLTCAISGDTVSSDSAAWNWIRQSPSRGLEWLGRTYYRSKWFNDYAVSVKGRITINSDTSKNQFSLQLNSVTPEDTAVYYCARSNSYYYYAMDVWGQGTLVTVSSGGGGSGGGGSGGGGSQAVLTQPSSLSASPGASASLTCTLRSGINVGIYRIYWYQQRPGSPPQILLTYKSDSDKYQGSGVPSRFSGSKDASANAGILLISGLQSEDEADYYCMIWHSGGWVFGGGTKVTVLGTTTPAPRPPTPAPTIASQPLSLRPEACRPAAGGAVHTRGLDFACDIYIWAPLAGTCGVLLLSLVITRVKFSRSADAPA
notes: Expressed on human CTL cells by lentivirus; also called P1A6E-δZ (negative control); P1A6E-δZ (mock)
Take B3: the “Positive rate of CTL cells transfection” value in test [2] came to 75%.

B4: P3F2 monoclonal antibody (antibody, V domains shown)
VH: QMQLVQSGAEVKKPGASVKVSCKASGYTFTSYYMHWVRQAPGQGLEWMGIINPSGGSTSYAQKFQGRVTMTRDTSTSTVYMELSSLRSEDTAVYYCASSRSGTTVVNHDAFDIWGKGTTVTVSS
VL: DIQLTQSPSSLSASVGDRVTITCRASQVISRALAWYQQTPGKPPKLLIYDASNLQSGVPSRFSGSGSGTDFTLTISRLQPEDFATYYCQQFNSYPLTFGGGTKLEIKR
notes: Full antibody: VH in plasmid pIH with human IgG1 CH gene, VL in plasmid pIK with human IgG CL gene; also called monoclonal antibody P3F2
In the case of B4, in test [3], the Kd was 7.17 nM, the koff is 0.000789 s⁻¹ and the kon was 110000 M⁻¹ s⁻¹.

B5: chimeric antigen receptor P1A6E-BBZ on CTL cells (receptor)
chain: QVQLEQSGLGLVKPSQTLSLTCAISGDTVSSDSAAWNWIRQSPSRGLEWLGRTYYRSKWFNDYAVSVKGRITINSDTSKNQFSLQLNSVTPEDTAVYYCARSNSYYYYAMDVWGQGTLVTVSSGGGGSGGGGSGGGGSQAVLTQPSSLSASPGASASLTCTLRSGINVGIYRIYWYQQRPGSPPQILLTYKSDSDKYQGSGVPSRFSGSKDASANAGILLISGLQSEDEADYYCMIWHSGGWVFGGGTKVTVLGTTTPAPRPPTPAPTIASQPLSLRPEACRPAAGGAVHTRGLDFACDIYIWAPLAGTCGVLLLSLVITLYCKRGRKKLLYIFKQPFMRPVQTTQEEDGCSCRFPEEEEGGCELRVKFSRSADAPAYKQGQNQLYNELNLGRREEYDVLDKRRGRDPEMGGKPRRKNPQEGLYNELQKDKMAEAYSEIGMKGERRRGKGHDGLYQGLSTATKDTYDALHMQALPPR
notes: Expressed on human CTL cells by lentivirus; also called scFv(MSLN)-CD8-CD137-CD3 zeta
Consider B5, for which, in test [4], the “CYTOTOXICITY (%), effector target ratio 1:1, LDH release, 18 h” value came out at 56.7%; the “CYTOTOXICITY (%), effector target ratio 1:3, LDH release, 18 h” value amounted to 25.3%; the “CYTOTOXICITY (%), effector target ratio 3:1, LDH release, 18 h” value worked out at 86.5%. The “Positive rate of CTL cells transfection” value in test [2] is 85%.

B6: single chain antibody P3F2 (phage-displayed, single phage ELISA) (scFv)
scFv: QMQLVQSGAEVKKPGASVKVSCKASGYTFTSYYMHWVRQAPGQGLEWMGIINPSGGSTSYAQKFQGRVTMTRDTSTSTVYMELSSLRSEDTAVYYCASSRSGTTVVNHDAFDIWGKGTTVTVSSGGGGSGGGGSGGGGSDIQLTQSPSSLSASVGDRVTITCRASQVISRALAWYQQTPGKPPKLLIYDASNLQSGVPSRFSGSGSGTDFTLTISRLQPEDFATYYCQQFNSYPLTFGGGTKLEIKR
notes: as for B1
Turning to B6, the binding result in test [1] is “no binding”.

B7: P1A6E monoclonal antibody (antibody, V domains shown)
VH: QVQLEQSGLGLVKPSQTLSLTCAISGDTVSSDSAAWNWIRQSPSRGLEWLGRTYYRSKWFNDYAVSVKGRITINSDTSKNQFSLQLNSVTPEDTAVYYCARSNSYYYYAMDVWGQGTLVTVSS
VL: QAVLTQPSSLSASPGASASLTCTLRSGINVGIYRIYWYQQRPGSPPQILLTYKSDSDKYQGSGVPSRFSGSKDASANAGILLISGLQSEDEADYYCMIWHSGGWVFGGGTKVTVLG
notes: Full antibody: VH in plasmid pIH with human IgG1 CH gene, VL in plasmid pIK with human IgG CL gene; also called monoclonal antibody P1A6E
For the molecule B7, in test [3], the Kd was 4.04 nM, the koff turned out to be 0.00116 s⁻¹ and the kon stood at 288000 M⁻¹ s⁻¹.

B8: chimeric antigen receptor P3F2-δZ on CTL cells (receptor)
chain: QMQLVQSGAEVKKPGASVKVSCKASGYTFTSYYMHWVRQAPGQGLEWMGIINPSGGSTSYAQKFQGRVTMTRDTSTSTVYMELSSLRSEDTAVYYCASSRSGTTVVNHDAFDIWGKGTTVTVSSGGGGSGGGGSGGGGSDIQLTQSPSSLSASVGDRVTITCRASQVISRALAWYQQTPGKPPKLLIYDASNLQSGVPSRFSGSGSGTDFTLTISRLQPEDFATYYCQQFNSYPLTFGGGTKLEIKRTTTPAPRPPTPAPTIASQPLSLRPEACRPAAGGAVHTRGLDFACDIYIWAPLAGTCGVLLLSLVITRVKFSRSADAPA
notes: Expressed on human CTL cells by lentivirus; also called P3F2-δZ (negative control); P3F2-δZ (mock)
On to B8, for which the “Positive rate of CTL cells transfection” value in test [2] is 71%.

B9: chimeric antigen receptor P3F2-BBZ on CTL cells (receptor)
chain: QMQLVQSGAEVKKPGASVKVSCKASGYTFTSYYMHWVRQAPGQGLEWMGIINPSGGSTSYAQKFQGRVTMTRDTSTSTVYMELSSLRSEDTAVYYCASSRSGTTVVNHDAFDIWGKGTTVTVSSGGGGSGGGGSGGGGSDIQLTQSPSSLSASVGDRVTITCRASQVISRALAWYQQTPGKPPKLLIYDASNLQSGVPSRFSGSGSGTDFTLTISRLQPEDFATYYCQQFNSYPLTFGGGTKLEIKRTTTPAPRPPTPAPTIASQPLSLRPEACRPAAGGAVHTRGLDFACDIYIWAPLAGTCGVLLLSLVITLYCKRGRKKLLYIFKQPFMRPVQTTQEEDGCSCRFPEEEEGGCELRVKFSRSADAPAYKQGQNQLYNELNLGRREEYDVLDKRRGRDPEMGGKPRRKNPQEGLYNELQKDKMAEAYSEIGMKGERRRGKGHDGLYQGLSTATKDTYDALHMQALPPR
notes: as for B5
Consider B9, for which, in test [4], the “CYTOTOXICITY (%), effector target ratio 1:1, LDH release, 18 h” value is 60.2%; the “CYTOTOXICITY (%), effector target ratio 1:3, LDH release, 18 h” value turned out to be 31.9%; the “CYTOTOXICITY (%), effector target ratio 3:1, LDH release, 18 h” value amounted to 89.3%. Moreover, the “Positive rate of CTL cells transfection” value in test [2] was determined as 83%.
